This is an account of results in US20230312740A1 (VIRTUOSO BINCO, published 2023).

The target in one assay is T1, Avi-human CD38 ECD (human, UniProt P28907 43-300).
T1 construct: eluted as a monomer; also called hCD38; huCD38
Briefly: ELISA on human CD38 ECD; class A = EC50 0.02 nM - 0.1 nM (table legend). Background: ELISA stands for enzyme-linked immunosorbent assay.

The target of assay [1] is ICAM1 on the surface of tumor cells (human, UniProt P05362 28-532). The experiment in a line: cell-based or functional assay.
ICAM1 on the surface of tumor cells, sequence (P05362 28-532): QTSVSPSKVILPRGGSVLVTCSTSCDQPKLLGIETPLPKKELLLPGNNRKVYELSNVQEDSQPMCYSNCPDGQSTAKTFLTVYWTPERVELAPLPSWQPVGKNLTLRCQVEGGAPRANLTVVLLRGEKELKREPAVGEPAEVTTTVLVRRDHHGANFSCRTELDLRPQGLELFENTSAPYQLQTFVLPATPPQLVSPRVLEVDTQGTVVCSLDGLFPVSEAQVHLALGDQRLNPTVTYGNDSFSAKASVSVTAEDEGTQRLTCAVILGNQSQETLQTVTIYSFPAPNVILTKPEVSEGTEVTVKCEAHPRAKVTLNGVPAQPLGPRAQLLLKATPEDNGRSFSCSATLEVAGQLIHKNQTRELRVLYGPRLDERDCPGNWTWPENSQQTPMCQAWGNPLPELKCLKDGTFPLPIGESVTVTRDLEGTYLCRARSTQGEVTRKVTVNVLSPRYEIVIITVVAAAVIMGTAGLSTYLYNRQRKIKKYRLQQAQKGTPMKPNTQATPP

B1: h18E4-19 HC E101A (antibody, name in Kabat numbering, V domains shown)
VH: EVQLLESGGGLVQPGGSLRLSCAASGFSFNNYWIIWIRQAPGKGLEWVAAIYSPSGDIKYYADWAKGRFTVSKDNSKNTVYLQMNSLRAEDTAVYYCARELSGSSYEGYFASWGQGTLVTV
VL: DIQLTQSPSTLSASVGDRVTITCRSSQSVYGHNWLAWYQQKPGKAPKLLMYRASNLASGVPSRFSGSGSGTEFTLTISSVQPDDFATYYCQGYYSGGSYAFGGGTKVEIK
notes: Alanine scan variant of h18E4-19; Kabat numbers, not linear positions of the entry
By EC50 is commonly meant the concentration at which the effect is half-maximal. High values mean lower potency in that assay, low ones higher potency in that assay. Molecule B1 registered an EC50 in the assay with Avi-human CD38 ECD of 0.02 to 0.1 nM.

B2: h18E4-19 HC L96A (antibody, name in Kabat numbering, V domains shown)
VH: EVQLLESGGGLVQPGGSLRLSCAASGFSFNNYWIIWIRQAPGKGLEWVAAIYSPSGDIKYYADWAKGRFTVSKDNSKNTVYLQMNSLRAEDTAVYYCAREASGSSYEGYFESWGQGTLVTV
VL: DIQLTQSPSTLSASVGDRVTITCRSSQSVYGHNWLAWYQQKPGKAPKLLMYRASNLASGVPSRFSGSGSGTEFTLTISSVQPDDFATYYCQGYYSGGSYAFGGGTKVEIK
notes: as for B1
Regarding B2, the EC50 with Avi-human CD38 ECD was in the range of 0.02 to 0.1 nM.

B3: h18E4-19 HC F100eA (antibody, name in Kabat numbering, V domains shown)
VH: EVQLLESGGGLVQPGGSLRLSCAASGFSFNNYWIIWIRQAPGKGLEWVAAIYSPSGDIKYYADWAKGRFTVSKDNSKNTVYLQMNSLRAEDTAVYYCARELSGSSYEGYAESWGQGTLVTV
VL: DIQLTQSPSTLSASVGDRVTITCRSSQSVYGHNWLAWYQQKPGKAPKLLMYRASNLASGVPSRFSGSGSGTEFTLTISSVQPDDFATYYCQGYYSGGSYAFGGGTKVEIK
notes: as for B1
As to B3, in the assay with Avi-human CD38 ECD, the EC50 was 0.02 to 0.1 nM.

B4: h18E4-19 HC G98A (antibody, V domains shown)
VH: EVQLLESGGGLVQPGGSLRLSCAASGFSFNNYWIIWIRQAPGKGLEWVAAIYSPSGDIKYYADWAKGRFTVSKDNSKNTVYLQMNSLRAEDTAVYYCARELSASSYEGYFESWGQGTLVTVSS
VL: DIQLTQSPSTLSASVGDRVTITCRSSQSVYGHNWLAWYQQKPGKAPKLLMYRASNLASGVPSRFSGSGSGTEFTLTISSVQPDDFATYYCQGYYSGGSYAFGGGTKVEIK
notes: as for B1
Regarding B4, the EC50 in the assay with Avi-human CD38 ECD fell in the range of 0.02 to 0.1 nM.

B5: h18E4-19 HC S100A (antibody, name in Kabat numbering, V domains shown)
VH: EVQLLESGGGLVQPGGSLRLSCAASGFSFNNYWIIWIRQAPGKGLEWVAAIYSPSGDIKYYADWAKGRFTVSKDNSKNTVYLQMNSLRAEDTAVYYCARELSGSAYEGYFESWGQGTLVTV
VL: DIQLTQSPSTLSASVGDRVTITCRSSQSVYGHNWLAWYQQKPGKAPKLLMYRASNLASGVPSRFSGSGSGTEFTLTISSVQPDDFATYYCQGYYSGGSYAFGGGTKVEIK
notes: as for B1
Consider B5, for which the EC50 with Avi-human CD38 ECD was 0.02 to 0.1 nM.

B6: h18E4-19 HC S99A (antibody, name in Kabat numbering, V domains shown)
VH: EVQLLESGGGLVQPGGSLRLSCAASGFSFNNYWIIWIRQAPGKGLEWVAAIYSPSGDIKYYADWAKGRFTVSKDNSKNTVYLQMNSLRAEDTAVYYCARELSGASYEGYFESWGQGTLVTV
VL: DIQLTQSPSTLSASVGDRVTITCRSSQSVYGHNWLAWYQQKPGKAPKLLMYRASNLASGVPSRFSGSGSGTEFTLTISSVQPDDFATYYCQGYYSGGSYAFGGGTKVEIK
notes: as for B1
For B6, the EC50 with Avi-human CD38 ECD fell in the range of 0.02 to 0.1 nM.

B7: h18E4-19 LC S95aA (antibody, V domains shown)
VH: EVQLLESGGGLVQPGGSLRLSCAASGFSFNNYWIIWIRQAPGKGLEWVAAIYSPSGDIKYYADWAKGRFTVSKDNSKNTVYLQMNSLRAEDTAVYYCARELSGSSYEGYFESWGQGTLVTV
VL: DIQLTQSPSTLSASVGDRVTITCRSSQSVYGHNWLAWYQQKPGKAPKLLMYRASNLASGVPSRFSGSGSGTEFTLTISSVQPDDFATYYCQGYYSGGAYAFGGGTKVEIK
notes: as for B1
In the assay with Avi-human CD38 ECD, B7 had an EC50 of 0.02 to 0.1 nM.

B8: h18E4-19 HC S97A (antibody, name in Kabat numbering, V domains shown)
VH: EVQLLESGGGLVQPGGSLRLSCAASGFSFNNYWIIWIRQAPGKGLEWVAAIYSPSGDIKYYADWAKGRFTVSKDNSKNTVYLQMNSLRAEDTAVYYCARELAGSSYEGYFESWGQGTLVTV
VL: DIQLTQSPSTLSASVGDRVTITCRSSQSVYGHNWLAWYQQKPGKAPKLLMYRASNLASGVPSRFSGSGSGTEFTLTISSVQPDDFATYYCQGYYSGGSYAFGGGTKVEIK
notes: as for B1
The molecule B8 displayed an EC50 in the assay with Avi-human CD38 ECD of 0.02 to 0.1 nM.

B9: h18E4-19 LC Y92A (antibody, V domains shown)
VH: EVQLLESGGGLVQPGGSLRLSCAASGFSFNNYWIIWIRQAPGKGLEWVAAIYSPSGDIKYYADWAKGRFTVSKDNSKNTVYLQMNSLRAEDTAVYYCARELSGSSYEGYFESWGQGTLVTV
VL: DIQLTQSPSTLSASVGDRVTITCRSSQSVYGHNWLAWYQQKPGKAPKLLMYRASNLASGVPSRFSGSGSGTEFTLTISSVQPDDFATYYCQGYASGGSYAFGGGTKVEIK
notes: as for B1
In the assay with Avi-human CD38 ECD, B9 had an EC50 of 0.02 to 0.1 nM.

B10: h18E4-19 LC Q89A (antibody, V domains shown)
VH: EVQLLESGGGLVQPGGSLRLSCAASGFSFNNYWIIWIRQAPGKGLEWVAAIYSPSGDIKYYADWAKGRFTVSKDNSKNTVYLQMNSLRAEDTAVYYCARELSGSSYEGYFESWGQGTLVTV
VL: DIQLTQSPSTLSASVGDRVTITCRSSQSVYGHNWLAWYQQKPGKAPKLLMYRASNLASGVPSRFSGSGSGTEFTLTISSVQPDDFATYYCAGYYSGGSYAFGGGTKVEIK
notes: as for B1
In the assay with Avi-human CD38 ECD, B10 gave an EC50 of 0.02 to 0.1 nM.

B11: h18E4-19 HC Y100aA (antibody, name in Kabat numbering, V domains shown)
VH: EVQLLESGGGLVQPGGSLRLSCAASGFSFNNYWIIWIRQAPGKGLEWVAAIYSPSGDIKYYADWAKGRFTVSKDNSKNTVYLQMNSLRAEDTAVYYCARELSGSSAEGYFESWGQGTLVTV
VL: DIQLTQSPSTLSASVGDRVTITCRSSQSVYGHNWLAWYQQKPGKAPKLLMYRASNLASGVPSRFSGSGSGTEFTLTISSVQPDDFATYYCQGYYSGGSYAFGGGTKVEIK
notes: as for B1
Take B11: the EC50 with Avi-human CD38 ECD lay in the range of 0.02 to 0.1 nM.

B12: h18E4-19 LC G95A (antibody, V domains shown)
VH: EVQLLESGGGLVQPGGSLRLSCAASGFSFNNYWIIWIRQAPGKGLEWVAAIYSPSGDIKYYADWAKGRFTVSKDNSKNTVYLQMNSLRAEDTAVYYCARELSGSSYEGYFESWGQGTLVTV
VL: DIQLTQSPSTLSASVGDRVTITCRSSQSVYGHNWLAWYQQKPGKAPKLLMYRASNLASGVPSRFSGSGSGTEFTLTISSVQPDDFATYYCQGYYSGASYAFGGGTKVEIK
notes: as for B1
In turn, B12 registered an EC50 with Avi-human CD38 ECD of 0.02 to 0.1 nM.

B13: h18E4-19 HC S102A (antibody, name in Kabat numbering, V domains shown)
VH: EVQLLESGGGLVQPGGSLRLSCAASGFSFNNYWIIWIRQAPGKGLEWVAAIYSPSGDIKYYADWAKGRFTVSKDNSKNTVYLQMNSLRAEDTAVYYCARELSGSSYEGYFEAWGQGTLVTV
VL: DIQLTQSPSTLSASVGDRVTITCRSSQSVYGHNWLAWYQQKPGKAPKLLMYRASNLASGVPSRFSGSGSGTEFTLTISSVQPDDFATYYCQGYYSGGSYAFGGGTKVEIK
notes: as for B1
On to B13, for which the EC50 in the assay with Avi-human CD38 ECD fell in the range of 0.02 to 0.1 nM.

B14: h11F2-6 (antibody, V domains shown)
VH: EVQVLESGGGLVQPGGSLRLSCAVSGFSLSSHAMGWVRQAPGKGLEWIGIIGSSDRTYYASWAKGRFTISKDNSKNTVYLQINSPRAEDTAVYYCVRDPYDSYDEGYRLWGQGTLVTVSS
VL: DIQMTQSPSTLSASVGDRVTITCQASQSIYRYLSWYQQKPGKAPKFLIYDASKLASGVPSRFSGSGSGTEFTLTISSVQPDDFATYYCQQAYSSGSIDNAFGGGTKVEIK
With B14, in assay [1], the “ADCC EC50 on Daudi cells; antibody made in CHO FUT8 -/- (afucosylated)” value stood at 0.008 nM, the “ADCC EC50 on HuNS1 cells; antibody made in CHO FUT8 -/- (afucosylated)” value came to 0.04 nM, the “ADCC EC50 on NCI-H2291 cells; antibody made in CHO” value was 0.329 nM and the “ADCC EC50 on NCI-H2291 cells; antibody made in CHO FUT8 -/- (afucosylated)” value was 0.019 nM. In assay [1], the “ADCC EC50 on NCI-H2342 cells; antibody made in CHO” value amounted to 0.69 nM, the “ADCC EC50 on NCI-H2342 cells; antibody made in CHO FUT8 -/- (afucosylated)” value was 0.07 nM and the “ADCC EC50 on Raji cells; antibody made in CHO FUT8 -/- (afucosylated)” value was determined as 0.038 nM.
